This note sets out measurements from publication PMC4220463, “Direct interaction of Plk4 with STIL ensures formation of a single procentriole per parental centriole” (Nature Communications, 2014).

This test deals with T1, MBP-5Myc-HsSAS-6 full length (human, UniProt Q6UVJ0 1-657).
T1 construct: HsSAS-6 full length, cloned into a modified pENTR-1A-5Myc-MBP vector; also called MBP-HsSAS-6; source: Sf9 (baculovirus), purified (amylose resin); not shown: MBP, N-terminal, kept; 5Myc, N-terminal, kept
T1 sequence (looked up): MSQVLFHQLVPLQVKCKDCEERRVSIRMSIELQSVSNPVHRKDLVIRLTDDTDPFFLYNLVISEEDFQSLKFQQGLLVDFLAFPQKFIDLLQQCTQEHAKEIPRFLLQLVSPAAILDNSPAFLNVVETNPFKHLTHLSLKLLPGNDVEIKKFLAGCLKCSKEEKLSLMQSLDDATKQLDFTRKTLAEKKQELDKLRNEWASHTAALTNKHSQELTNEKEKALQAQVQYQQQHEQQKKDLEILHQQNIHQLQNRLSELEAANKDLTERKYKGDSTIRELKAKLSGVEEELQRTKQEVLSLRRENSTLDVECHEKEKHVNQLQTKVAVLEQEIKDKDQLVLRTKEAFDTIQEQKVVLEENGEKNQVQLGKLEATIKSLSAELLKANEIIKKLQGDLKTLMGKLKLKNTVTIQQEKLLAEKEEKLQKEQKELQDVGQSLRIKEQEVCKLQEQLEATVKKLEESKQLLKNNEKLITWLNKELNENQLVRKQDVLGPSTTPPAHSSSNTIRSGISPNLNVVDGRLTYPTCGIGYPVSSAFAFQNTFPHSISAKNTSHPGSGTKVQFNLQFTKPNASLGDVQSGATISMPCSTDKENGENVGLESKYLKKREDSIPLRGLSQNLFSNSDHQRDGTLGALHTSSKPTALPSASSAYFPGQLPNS
As to the kind of experiment: pull-down; bacterially purified STIL fragments after an in vitro kinase reaction with Plk4ΔPEST-FLAG on anti-FLAG beads (supernatant; for N3C also the FLAG-peptide eluate) incubated with MBP-HsSAS-6 full length and pulled down with amylose resin; western blot. Particulars: both partners purified. For orientation: Immunoblotting shows a protein as a band on a membrane.

B1: STIL C fragment (a.a. 1,018–1,287) phosphorylated by Plk4ΔPEST-FLAG (domain or fragment, human, UniProt Q15468 1018-1287, looked up)
chain: NAHNVDHASVLACISPEAVISGLNCMSFANVGMSGLSPNGVDLSMEANAIALKYLNENQLSQLSVTRSNQNNCDPFSLLHINTDRSTVGLSLISPNNMSFATKKYMKRYGLLQSSDNSEDEEEPPDNADSKSEYLLNQNLRSIPEQLGGQKEPSKNDHEIINCSNCESVGTNADTPVLRNITNEVLQTKAKQQLTEKPAFLVKNLKPSPAVNLRTGKAEFTQHPEKENEGDITIFPESLQPSETLKQMNSMNSVGTFLDVKRLRQLPKLF
modifications: phosphorylated in vitro by Plk4ΔPEST-FLAG: S1061, S1116, S1181, T1238, T1250
notes: human STIL C fragment, a.a; 1,018–1,287; also called GST-HA-STIL C; C-terminal fragment of STIL; source: E. coli BL21 gold (DE3), purified (glutathione sepharose), then phosphorylated in vitro by Plk4ΔPEST-FLAG; not shown: HA, N-terminal, kept
For the molecule B1, the binding result is “binds”.
